Target: T1, His6-BldD (Streptomyces venezuelae) (UniProt A0ABZ1NMZ0)
T1 sequence: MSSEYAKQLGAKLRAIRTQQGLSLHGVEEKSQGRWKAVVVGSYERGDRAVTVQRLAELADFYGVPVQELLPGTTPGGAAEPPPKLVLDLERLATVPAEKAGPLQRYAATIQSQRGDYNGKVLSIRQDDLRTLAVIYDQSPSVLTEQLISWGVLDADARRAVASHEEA
Assay: EMSA
Conditions: binding buffer and pH not stated

Sequence: CTCCCAGAGGCAGAGCTTCCATCACGTGCAGTGCGGGACCGTTCACCCGTCGTGGCGACGTGAGGGGTCCTTTGTGCGTCTGAGGAGAATAACGCTTCGTACAGGCAGCGCTACACCCAGTTGCCTAAATCACCGGTTCCG (double strand) [bldN promoter]
- binding: binds

Sequence: GCCATGACCTGCTGTGACTTGAGTCACAGAGGCGAGTATTTGCTGACCCTGTGTACCGGGTGCGCAGCTCGCTGTGATTCAGTGGCGGTGACAGTGCAACACGAAGCCGATGAGAACCCTGGAGTTGCTGTCGAGGTCTCG (double strand) [cdgB promoter]
- binding: binds
